Results published in patent US20260098096A1 (MONASH UNIVERSITY, published 2026).

Assays:
Human CCR8 = target: T1, Human CCR8 (human, UniProt P51685 1-355); experiment: flow cytometry on hCCR8-L1.2 transfected cells
T1 construct: Expressed on transfected CHO-Flpn or L1.2 cells; also called hCCR8; C-C chemokine receptor type 8

human CCR10 = target: T2, human CCR10 (human, UniProt P46092 1-362); experiment: flow cytometry on transfected L1.2 cells
T2 construct: whole, on cells
T2 sequence (looked up): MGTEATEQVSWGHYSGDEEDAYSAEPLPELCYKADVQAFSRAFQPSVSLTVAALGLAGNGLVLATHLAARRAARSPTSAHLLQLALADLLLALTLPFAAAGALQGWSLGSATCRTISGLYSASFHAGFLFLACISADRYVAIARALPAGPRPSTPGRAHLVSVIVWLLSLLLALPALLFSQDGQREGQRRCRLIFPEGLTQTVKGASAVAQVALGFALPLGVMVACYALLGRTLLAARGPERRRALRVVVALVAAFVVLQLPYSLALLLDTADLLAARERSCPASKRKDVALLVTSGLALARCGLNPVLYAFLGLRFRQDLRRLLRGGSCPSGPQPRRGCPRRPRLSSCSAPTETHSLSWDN

human CCR6 = target: T3, human CCR6 (human, UniProt P51684 1-374); experiment: flow cytometry on transfected L1.2 cells
T3 construct: whole, on cells
T3 sequence (looked up): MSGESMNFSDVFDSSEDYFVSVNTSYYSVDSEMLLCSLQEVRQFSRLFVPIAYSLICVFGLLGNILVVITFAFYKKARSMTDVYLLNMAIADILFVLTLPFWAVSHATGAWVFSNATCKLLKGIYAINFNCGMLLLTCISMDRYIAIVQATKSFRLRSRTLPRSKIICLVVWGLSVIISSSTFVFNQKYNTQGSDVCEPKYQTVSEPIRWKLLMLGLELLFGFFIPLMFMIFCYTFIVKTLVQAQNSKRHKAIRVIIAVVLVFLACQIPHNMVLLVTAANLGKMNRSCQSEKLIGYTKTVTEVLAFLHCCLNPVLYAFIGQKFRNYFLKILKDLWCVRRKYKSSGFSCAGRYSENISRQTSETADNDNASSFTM

human CCR7 = target: T4, human CCR7 (human, UniProt P32248 25-378); experiment: flow cytometry on transfected L1.2 cells
T4 construct: whole, on cells
T4 sequence (looked up): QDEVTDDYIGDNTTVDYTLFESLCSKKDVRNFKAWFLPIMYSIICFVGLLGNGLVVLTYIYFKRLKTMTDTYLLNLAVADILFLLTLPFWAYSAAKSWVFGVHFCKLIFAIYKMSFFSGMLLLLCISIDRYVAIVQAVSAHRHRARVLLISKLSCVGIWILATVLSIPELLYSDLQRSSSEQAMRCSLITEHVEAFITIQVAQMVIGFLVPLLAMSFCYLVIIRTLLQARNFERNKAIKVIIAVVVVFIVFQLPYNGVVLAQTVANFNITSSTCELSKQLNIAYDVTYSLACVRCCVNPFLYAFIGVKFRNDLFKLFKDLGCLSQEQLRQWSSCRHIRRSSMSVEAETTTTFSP

human CCR3 = target: T5, human CCR3 (human, UniProt P51677 1-355); experiment: flow cytometry on transfected L1.2 cells
T5 construct: whole, on cells
T5 sequence (looked up): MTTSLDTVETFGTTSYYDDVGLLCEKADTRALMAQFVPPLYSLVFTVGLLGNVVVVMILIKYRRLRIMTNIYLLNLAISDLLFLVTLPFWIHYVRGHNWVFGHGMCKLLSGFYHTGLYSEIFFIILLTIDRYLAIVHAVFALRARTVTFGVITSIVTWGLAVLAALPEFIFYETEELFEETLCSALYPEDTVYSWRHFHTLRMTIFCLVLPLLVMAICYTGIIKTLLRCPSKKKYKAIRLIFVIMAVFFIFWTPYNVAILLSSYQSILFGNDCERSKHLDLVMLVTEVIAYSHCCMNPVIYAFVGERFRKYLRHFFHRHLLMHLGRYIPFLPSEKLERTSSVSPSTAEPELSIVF

Cynomolgus CCR8 = target: T6, Cynomolgus CCR8 (cynomolgus monkey, UniProt O97665 1-356 (rhesus entry)); experiment: flow cytometry on HEK293T cells transfected with cyno CCR8
T6 construct: also called cyno CCR8; cynomolgus monkey CCR8
T6 sequence (O97665 other isoform, or with tags, fused parts or gaps): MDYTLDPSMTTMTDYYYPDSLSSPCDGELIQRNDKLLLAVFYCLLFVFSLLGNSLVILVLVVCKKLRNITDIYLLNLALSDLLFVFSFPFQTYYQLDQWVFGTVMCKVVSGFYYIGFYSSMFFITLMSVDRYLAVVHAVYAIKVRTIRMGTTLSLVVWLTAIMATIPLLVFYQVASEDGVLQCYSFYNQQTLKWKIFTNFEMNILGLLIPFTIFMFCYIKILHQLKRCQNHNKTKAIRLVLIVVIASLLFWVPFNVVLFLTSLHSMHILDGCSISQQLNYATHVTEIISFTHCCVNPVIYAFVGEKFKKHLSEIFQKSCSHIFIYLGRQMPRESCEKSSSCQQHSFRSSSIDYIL
Excerpt: FIG. 2. Reactivity of 2H8 antibody and other anti-hCCR8 antibodies towards Cyno CCR8. HEK293T cells were transfected with plasmid coding for cynomolgus monkey CCR8 and stained with various anti-hCCR8 antibodies (blue) or isotype control (red).

hCCR8_172-173 YQ-AA = target: T7, hCCR8_172-173 YQ-AA (human, UniProt P51685 1-355); experiment: epitope mapping on transfected cells
T7 construct: also called Mut 172-173
T7 sequence (P51685 whole entry Y172A/Q173A): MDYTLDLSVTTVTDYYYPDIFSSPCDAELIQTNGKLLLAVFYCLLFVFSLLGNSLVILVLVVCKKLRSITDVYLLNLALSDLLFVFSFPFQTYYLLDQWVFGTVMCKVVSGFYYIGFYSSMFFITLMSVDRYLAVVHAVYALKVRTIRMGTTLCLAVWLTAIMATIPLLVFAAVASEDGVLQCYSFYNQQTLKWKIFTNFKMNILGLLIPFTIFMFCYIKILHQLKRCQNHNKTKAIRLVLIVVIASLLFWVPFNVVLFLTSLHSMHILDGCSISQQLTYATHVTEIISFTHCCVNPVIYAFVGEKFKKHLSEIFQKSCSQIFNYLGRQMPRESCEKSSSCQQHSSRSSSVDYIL

hCCR8_174-175 VA-AG = target: T8, hCCR8_174-175 VA-AG (human, UniProt P51685 1-355); experiment: epitope mapping on transfected cells
T8 construct: also called Mut 174-175
T8 sequence (P51685 whole entry V174A/A175G): as the sequence (P51685 whole entry Y172A/Q173A) above, with A172Y, A173Q, V174A, A175G counted along it

Mouse CCR8 = target: T9, Mouse CCR8 (mouse, UniProt P56484 1-353); experiment: flow cytometry on transfected CHO-Flpn cells
T9 construct: Expressed on transfected CHO-Flpn or L1.2 cells; also called mCCR8
T9 sequence: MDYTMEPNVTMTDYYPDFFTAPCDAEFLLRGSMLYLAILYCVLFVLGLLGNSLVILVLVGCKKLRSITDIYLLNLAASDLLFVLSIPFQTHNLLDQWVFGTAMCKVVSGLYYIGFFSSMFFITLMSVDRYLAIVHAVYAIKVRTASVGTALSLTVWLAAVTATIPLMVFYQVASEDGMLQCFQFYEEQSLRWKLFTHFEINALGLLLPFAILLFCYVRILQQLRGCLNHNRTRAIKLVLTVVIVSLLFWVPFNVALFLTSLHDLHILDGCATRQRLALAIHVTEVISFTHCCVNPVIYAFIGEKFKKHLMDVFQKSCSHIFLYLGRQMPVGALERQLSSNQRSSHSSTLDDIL

T1 sequence (P51685 whole entry): as the sequence (P51685 whole entry Y172A/Q173A) above, with A172Y, A173Q counted along it

B1: Chimeric 2H8 (antibody, human IgG1, kappa, V domains shown)
VH: EVQLQQSGPELVKPGASVKMSCKASGYTFTDYNMHWVKQSHGKSLEWIGYVNPNNGGTSYNQKFKGKATLTVNKSSSTAYMELRSLTSEDSAVYYCARWVLRRNFAYWGQGTLVTVSA
VL: DIVMTQSHKFMSTSVGDRVSITCKASQDVNTAVAWYQQKPGQSPKLLIYWASTRHTGVPDRFTGSGSGTDYTLTISSVQAEDLALYYCQQHYRNPYTFGGGTKLEIKR
notes: also called Chimeric 2H8-B4; chimeric 2H8 B4 (parental)
Human CCR8
  EC50: 2.1 nM

B2: 2H8 anti-m/hCCR8 antibody (mouse hybridoma clone, isotype IgG2b) (antibody, V domains shown)
VH: EVQLQQSGPELVKPGASVKMSCKASGYTFTDYNMHWVKQSHGKSLEWIGYVNPNNGGTSYNQKFKGKATLTVNKSSSTAYMELRSLTSEDSAVYYCARWVLRRNFAYWGQGTLVTVSA
VL: DIVMTQSHKFMSTSVGDRVSITCKASQDVNTAVAWYQQKPGQSPKLLIYWASTRHTGVPDRFTGSGSGTDYTLTISSVQAEDLALYYCQQHYRNPYTFGGGTKLEIK
notes: Murine antibody from a mouse immunised with mouse CCR8 L1.2 cells; the mouse constant regions are not; also called 2H8-B4
Human CCR10
  binding result: no binding
Human CCR6
  binding result: no binding
Human CCR7
  binding result: no binding
Human CCR3
  binding result: no binding
Cynomolgus CCR8
  binding result: binds
hCCR8_172-173 YQ-AA
  binding result: binds
hCCR8_174-175 VA-AG
  binding result: binds
Mouse CCR8
  binding result: binds

B3: Humanised 2H8 (antibody, V domains shown)
VH: QVQLVQSGAEVKKPGASVKVSCKASGYTFTDYNMHWVRQAPGQGLEWIGYVNPNNGGTSYNQKFKGKATLTVDKSISTAYMELSRLRSDDTAVYYCARWVLRRNFAYWGQGTLVTVSS
VL: DIQMTQSPSSLSASVGDRVTITCKASQDVNTAVAWYQQKPGKAPKLLIYWASTRHTGVPSRFSGSGSGTDFTLTISSLQPEDFATYYCQQHYRNPYTFGQGTKLEIK
notes: also called Humanized 2H8-B4; h2H8
Human CCR8
  EC50: 2.1 nM
